Experimental data as given in the DeepSol protein solubility set.

Assay: soluble on expression in E. coli; label from the status in PepcDB or PDB records

| Sequence | soluble on expression in E. coli |
| --- | --- |
| NWVTPDGAPGPTGKGGFAAASGRYHLYVSYACPWAHRTLIFREIKGLSAHIPVSAVHPDMLDQGWTFAPEPQGRTGDRLYGLNYAHQVYTRADPTYSGRVTVPILWDSERQTVVSNESSEIIRMFNSAFDGLTGNRDDFWPEALREAIEPVNARIYDTVNN | not soluble |
| MNSSSTLQKLLDRRGQAANGNSATQAVQWQEGMNLTLHVNGDSLTMLAEIINLRADPQDDILLRKLLAHAFPGLRLRRGALTINPDENTLVYSYEHDFLALDKTRFENLLANFAETTQELRNTAQRLR | not soluble |
| MAHHHHHHMLWAIKHTDYPTMSTGLETLDLFLENVSKSEYAEVFFKAYMQRILVDVMVASMDSLHASGFQHHVRILQKLFNVSSMVPPDTPTIGKDVIRAYLLDSLTVIPTLTTTSILSFVDTCYESFTDDERFRTQFADFLIEVKVWGAEQENKMQEEDERRLREETIPGFSNLSMEIRRQTCSPPSDPGRCADGQGRGPASVRRFHCRRHRHPSKYTCTPLSLFPLKNPSADPAVRDVRPSYFVDCVGG | not soluble |
| MTIQHQFAENLSRLKKEHGLKNHQIAELLNVQTRTVAYYMSGETKPDIEKLIRLATYFHLSIDELVGYVQEDKVWNDLSLKQWLLSLNLRSEEEIAKIKILVDTVETLYPN | not soluble |
| MGSDKIHHHHHHMNIIKSFNSTIDYLETVLDDEIDEKKVTRISGYSYSMFSRLFSILTEMTLSEYLRSRRLTEAAIILRDTDEKIIDVAFKFGYESSDSFGTAFKNFHGFTPSEVRIGKPFKLVSRVQLALSVRGGRSMNIRIQKKKAFTVAGVNQQNINSSICASLWQKLFSKVSHEEMLNLGTGEVVGVCHDILSLDNHDVLDSNTINYMAGYIVTDVDKARSMGLDILEIGETEYAVVELTGSVPECIHNGWKYAMEVFFPEHGYVHSGKPDFEYYYEGDMYSKDYKMELWIPVCKS | not soluble |
| MGHHHHHHSHMRKLTALFVASTLAMGAANLAHAAETTTAAPADAKPMMQHKGKFGPHHDMMFKNLNLTDAQKQQIRDIMKAQREQMKRPLLEERRAMHDIIASDTFDKAKAEAQITKMEAQRKANMLAHMETQNKIYNVLTPEQKKQYNANFEKRLTERPAQEGKMPAAAE | soluble |
| MNIELLQQLCEASAVSGDEQEVRDILINTLEPCVNEITFDGLGSFVARKGNKGPKVAVVGHMDEVGFMVTHIDESGFLRFTTIGGWWNQSMLNHRVTIRTHKGVKIPGVIGSVAPHALTEKQKQQPLSFDEMFIDIGANSREEVEKRGVEIGNFISPEANFACWGEDKVVGKALDNRIGCAMMAELLQTVNNPEITLYGVGSVEEEVGLRGAQTSAEHIKPDVVIVLDTAVAGDVPGIDNIKYPLKLGQGPGLMLFDKRYFPNQKLVAALKSCAAHNDLPLQFSTMKTGATDGGRYNVMGGGRPVVALCLPTRYLHANSGMISKADYEALLTLIRGFLTTLTAEKVNAFSQFRQVD | not soluble |
| MGSDKIHHHHHHMLTTRKALYYLDKGKTKEAIHLLETCWNQKVTAENKRDIFTATVLLSDVLYQSGERFPEIYQKLMSILEEMQDLEAVDFEREKAKQIFAELDEYFSEVGTFFQGHSLAELWLKFDSENDYKDVYPTPQRVAAIEAELGYKLPKSYIYLMRHTQNGGIVSTGSVPTTEPSSWSENCVAITGIMGIGDCGVSTLNGMHNTNFWTEEWGYPDVGLAIADCPSAGHDMVFLDYRNCGKTGEPAVVHIDQEGDYKILKLADNFEEFILSLYREEY | not soluble |
| MPSENPIGKTMKSIDEQSLHNARRLFESGDIDRIEVGTTAGLQQIHRYLFGGLYDFAGQIREDNISKGGFRFANAMYLKEALVKIEQMPERTFEEIIAKYVEMNIAHPFLEGNGRSTRIWLDLVLKKNLKKVVNWQNVSKTLYLQAMERSPVNDLELRFLLKDNLTDDVDNREIIFKGIEQSYYYEGYEKG | soluble |
| MGSDKIHHHHHHMPTPADDLVVIGKIVSVYGIRGEVKVYSFTDPLDNLLDYRRWTLRRDGEIRQAELVRGRLHGKVLAAKLKGLDDREEARTFTGYEICIPRSELPSLEEGEYYWHQLEGLKVIDQGRQLLGVIDHLLETGANDVMVVKPCAGSLDDRERLLPYTGQCVLSIDLAAGEMRVDWDADF | soluble |
| MEDESSAKYPYRESMPRAERVSMKALQDEWRHLFITRAEGENNIHNPKIPEDTNDFDDDMPIECNESEEESITGDREVFSVHHNEEDEDQEDSSQICEESEPQELPKLCRRTDKHFKELPSGLINIIKDLSLDISGLYLPQTLLTGRIDLNDEFVASIEVEDAEKSKEILRRRRERPLALRQFSHALSRAMANLRTYHYDVTTEKIERCPMRNSCKGHLKWEQMRKYRAQCKKNFKDPSLATVEDMMSK | not soluble |
| MSLNATIVDIARRANVTNITVSRTFNQPGLVKQETREKIHAIAKELNYVPNAFAQGLKRSSSQIIGIVTSSMYNPFYSELIQTVSRIARTQCYQIMLFDTDGSEEAEMEAIQALFGYKACGILLSPVRDDKNYQPAYLDLAETYRVPLILIDRDIYNRQLSGVFLNNKEIGLLAGKYLSEQPERKMLIIGGPAESEITRVRIEGIINALENKKNDVHIINGDYDFISQEAAVRDYLSSPQNQPDYIIGLNGILTLGAIAICHELKIYNNIKFFSIDEPPKAADYGLHIAGVYHDTQMLGEIAAELLFNAIKKPHNDQAVRREFFTGSLLTHEGHHHHHH | soluble |
| MRPLLLLALLGWLLLAEAKGDAKPEDNLLVLTVATKETEGFRRFKRSAQFFNYKIQALGLGEDWNVEKGTSAGGGQKVRLLKKALEKHADKEDLVILFTDSYDVLFASGPRELLKKFRQSRSQVVFSAEELIYPDRRLETKYPVVSDGKRFLGSGGFIGYAPNLSKLVAEWEGQDSDSDQLFYTKIFLDPEKREQINITLDHRCRIFQNLDGALDEVVLKFEMGHVRARNLAYDTLPVLIHGNGPTKLQLNYLGNYIPRFWTFETGCTVCDEGLRSLKGIGDEALPTVLVGVFIEQPTPFVSLFFQRLLRLHYPQKHMRLFIHNHEQHHKAQVEEFLAQHGSEYQSVKLVGPEVRMANADARNMGADLCRQDRSCTYYFSVDADVALTEPNSLRLLIQQNKNVIAPLMTRHGRLWSNFWGALSADGYYARSEDYVDIVQGRRVGVWNVPYISNIYLIKGSALRGELQSSDLFHHSKLDPDMAFCANIRQQDVFMFLTNRHTLGHLLSLDSYRTTHLHNDLWEVFSNPEDWKEKYIHQNYTKALAGKLVETPCPDVYWFPIFTEVACDELVEEMEHFGQWSLGNNKDNRIQGGYENVPTIDIHMNQIGFEREWHKFLLEYIAPMTEKLYPGYYTRAQFDLAFVVRYKPDEQPSLMPHHDASTFTINIALNRVGVDYEGGGCRFLRYNCSIRAPRKGWTLMHPGRLTHYHEGLPTTRGTRYIAVSFVDP | not soluble |
| MGHHHHHHSHMPPYPANSVFCKDKVSLCCQVGPDFLGSSAPFSASHSAGITGMSHYAQPVFCSLNKGRTVW | not soluble |
| SLAQIPRPEIMDEDQLMKEVLDKFVNCHEQTYEEFLSTFTHLSKEDNVAKWGAHGTDSSENIFSTVKWNHKTESNGCHFRNTTIFLHTSSEHSEEDQIVIDEGHKVGSSFQGDMTRAGKVKVDNFLDLEDVDMEEESKPQMNKDCLLLPGEVEQDISTSVPSYDPSVDLPLTSEVRPKPAVGRTQKQTEEILGDEVQPFFLDEEFDYDNVTLTPKFTAGEIATIQELSKQKRVGSGTNVCELHD | soluble |
| MSLALDHVGIATEDAAGLAERFGAVFETQIAHSETFDGMYIIFLDMNGTYLELLEPVDDSDGPIATFLAQRDAGIHHIAIMTEDIATALENARAVGIECIDETPRQGAWGHQVAFLHPRSTGGVLCEFVQQEGHHHHHH | soluble |
| MGSDKIHHHHHHMMQLQVNATEIKTVYEQQLFNGKNFHVFIYNKTESVTGLHQHDYYEFTLVLTGRYYQEINGKRVLLERGDFVFIPVGSNHQSFYEFGATRILNVGISKRFFEQHYLPLLPFCFVASQVYRANSTFLTYIETVIASLNFRGNGLDEFIEVVTFYIINRLRHYREEQVYDDIPQWLKATVEIMHDKTQFGEHALENMVRLSAKSQEYLTRATRRYYSKTPMQIINEIRINFAKKQLEMTNYSVTDIAYEAGYSSPSLFIKTFKKMTSFTPNSYRKRLTEINE | not soluble |
| MAKKKKEILFCDYYEDWVETYKVGAIEDVTLNKYYVAARQLRDICPKLLMSDFSRKDYQLIMNEYGKTHEKQTAKDFHHHIKAAILDAYHDGLLKSDPTYRAVIKGKELEHHHHHH | not soluble |
